# Results taken from the RNAGym collection of RNA variant scans (doi:10.1073/pnas.2313332121).
# B1: TPR t1 (parent)
# chain: GACCAAUCUGCCCUCAGAGCUCGAGAACAUCUUCGGAUGCAGAGGAGGCAGGCUUCGGUGGCGCGAUAGCGCCAACGUCCUCAACCUCCAAUGCAUCCCACCACAUGAUGAUGCCUGAAGAGCCUUGGUUUUUUG
# Variants of: B1
# Experiment: polymerase ribozyme fitness, log enrichment relative to wild type (log ratio); higher = more active; in vitro selection for triplet polymerase activity
# Outline: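 Fitness compares each genotype's enrichment to that of the wild type on a logarithmic scale, averaging replicates with inverse-variance weights. The logarithm is base 2. Enrichment came from Illumina sequencing of input and output libraries after one triplicate round of in vitro selection, which included frozen incubation at −7 °C, of PCR-built, transcribed mutant libraries of each subunit of a heterodimeric triplet polymerase ribozyme. Only genotypes with ≥10 input reads and ≥1 read per output were kept.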
row,Variant,polymerase ribozyme fitness (log ratio)
1,C40U A121U,1.68
2,C40U U54A,-0.773
3,A41U A50C,-1.53
4,C40U C62G G127C,-3.27
5,G42A C86A U106G,-5.73
6,A41C C56U C94A,-3
7,A41G G61U G120C,0.573
8,C40U A105C,-3.68
9,A41U U133G,-1.49
10,G42U A43C G47C C62A U130C,-4.8
11,A41U C53U C72A C86A C114U U129G,-5.65
12,C40G C70G,-4.89
13,C40U C62G,-3.29
14,A41U A90C,-1.41
15,A41U G47C A75U,-3.07
16,C40U G71U U92A,-5.4
17,C40U G71A U78G C123G U125C,-1.36
18,G42U A50U G69U A105G,-3.63
19,C40G C49U G69A U78A,-4.96
20,C40G A95U,-3.37
21,C40U G120C,0.116
22,C40G C56U C70A G77A C88U A103U A119G,-7.04
23,C40U G48A C53A G61A U132A,-0.596
24,C40U G44A U125A,-1.32

row,Variant,polymerase ribozyme fitness (log ratio)
1,A41G G63U G117C,-6.01
2,C40U A83G U112G,-1.69
3,C40U C49A G61U C82G U131G,-0.822
4,C40U A119G U126G G127U,-0.212
5,G42A G57U G122U C123U,-2.35
6,A41C A46G U109A,-7.53
7,G42A C56A,-1.64
8,G42A C56G,-1.49
9,G42A U116C,-3.35
10,A41G U55G A75G U87A A108G,-4.14
11,G42U C70U,-2.26
12,C40G G69C,-2.54
13,C40G G69A,-3.43
14,C40G A84G,-2.06
15,G42A A100C,-4.08
16,C40U G61U C86G,-2.87
17,G42C G44A A50C C82U C85U,-3.31
18,A41C C70A U78C G128U U131C,-4.08
19,C40U C64U C82G,-1.35
20,A41C G93A U112A,-1.27
21,A41G C56A C102U,-3.9
22,C40U C62U A95G,-0.773
23,A41U A43G C94U,-3.17
24,C40U G110U G135C,-2.95

row,Variant,polymerase ribozyme fitness (log ratio)
1,G42A U78A,-2.26
2,A41G G57A G77U C123A G128C,-2.56
3,A41U C80U,-1.77
4,C40U G60C,-0.857
5,C40U G107C U109A,-6.59
6,A41U A43C C79U C80U C124U,-4.76
7,G42A C114G,-2.75
8,G42C G71U G77C A100U,-3.33
9,A41C G117C A121C,-6.19
10,C40U G117A,-1.87
11,G42A G71U U130G,-4.16
12,C40A U129G U131A G135C,-4.21
13,A41C A43C C72G C88A G93U C99A C102A C124A,-7.15
14,A41U C72G U78A A83U,-2.44
15,C40G C56U G69U,-3.63
16,C40U G60U U131G,-0.956
17,A41U C102U,-3.6
18,C40U A95G,-1.37
19,A43C A46U C101G C123U,-4.18
20,G42U G61U C123A,-0.3
21,C40A U109C C115U,-6.69
22,A41G A66G,-1.87
23,C40U C104A A119G,-1.84
24,C40U G45U G63U U78C,-4.36

row,Variant,polymerase ribozyme fitness (log ratio)
1,A41G C70U U78C,-0.997
2,C40U A50U G51A C82A C85U,-4.25
3,C40U C76U G117A,-2.16
4,C40U C53U G61C U131A,-0.765
5,C40G C72U,-1.47
6,C40G C101G C104U,-3.21
7,C40G C70U U106A U116A G120C,-2.18
8,A41U C79U,-0.893
9,A41C G69U,-0.161
10,A41G G48U C62A C80U A91U C98U C123A,-7.74
11,G42A C99U,-6.05
12,G42C U96A C123U,-0.809
13,G42C C62U U131C,-1.44
14,A41C C72A,-2.08
15,C40U G61C C88A,-2.87
16,C40G G120A,0.215
17,C40G G120U,-0.437
18,C40G A50U,-0.606
19,G42A G63A,-2.56
20,C40U U109A G120C,-5.74
21,A41C G61C G93C,-4.23
22,G42A C88A C98G G110C,-6.29
23,A41U G61A G127C,-2.63
24,G42C G63U C123U U133A,-1.98

row,Variant,polymerase ribozyme fitness (log ratio)
1,G42C G44U A50C U125A,-3.27
2,A41U A66C C70U C97U,-5.29
3,G42A C88G U132C,-2.38
4,G42C G60C G120U,-2.03
5,G42A G45C G61A A105C C115U,-6.55
6,C40G U109A C114G U132A,-4.05
7,A41U U130A,-2.03
8,C40U A68U A74U C97U C102A A111G,-7.15
9,G42U C70U U126G,-5.19
10,C40U C86G,-1.6
11,C40G C82A A83C U87A A121U,-0.502
12,G42A G44U C73G U112A G122A,-3.21
13,A41C G52A C82G C97U C101G A118U A121U,-2.61
14,G42A G113A,-2.62
15,G42U G52A A75G C101U,-0.635
16,G42C U55A G63U C101U,-3.41
17,A41U G42U G93C,-3.1
18,A41U A111G,-1.26
19,A41U G60A C80U,-3.75
20,C40U A43G G61A G71U C124A,-4.58
21,G42U U130A,-1.76
22,G42C G71U G117A,-4.04
23,G42A C70U,-2.09
24,G42U G61U C88G C101A G120C,-3.56

row,Variant,polymerase ribozyme fitness (log ratio)
1,G42U C49G U112A,-0.357
2,C40G A46C G51U C62U U87G C115G,-6.61
3,C40G A46U C53U C62A,-3.89
4,A41C C80G A121G U132A,-4.51
5,G42C U133G,-1.65
6,G42U A46C C53A U92A A95C C104G U112A,-7.25
7,A41G U54C G61C C104A,-6.52
8,A41U C53A G58A,-1.32
9,A41G G44C G63A C102U C124A G128A,-4.69
10,A41U U92A,-0.903
11,G42A A46U C76U U96G,-4.78
12,C40U C104A,-2.08
13,C40U C104U,-0.655
14,C40U G57C A90C A103U U112G,-6.33
15,G42U C72G G128C,-4.55
16,A41C C70U C85U,-2.92
17,A41U G45C,-2.41
18,A41U C80U C123A,-1.59
19,A41G G61U A84G U96G C97U,-6.44
20,A41C A91U A95C G113A,-3.38
21,G42U G61U C82U G127A U133A,-3.41
22,G42U G71U,-2.08
23,C40G A41U C70U C124G,-3.14
24,C40G C124A,1.16

row,Variant,polymerase ribozyme fitness (log ratio)
1,G42U G44A C56U G61C A68U C85U G110U U116C,-6.46
2,A41C G69U U112C,0.865
3,C40G C88G U125G,-6.8
4,G42U C94U U126A U129G,-5.24
5,A41U C49U C88A A121U,-0.675
6,C40U A46U G47A C53G A66C G117C,-7.17
7,A41U A91C U92C,-2.44
8,A41U G58C,-1.16
9,A41C C72A U92G G120U U129C,-2.57
10,C40G C72U G93A,-0.859
11,A41G A90G,0.631
12,G42U C49A U81G,-5.58
13,C40U C64U,-0.45
14,A41U G45U U78C,-2.76
15,C40U G113A,-1.41
16,C40G G69A A84C,-3.83
17,C40U G48U C82A C88A,-3.31
18,G42U U78C C123G,0.17
19,C40U G122A,-1.22
20,G42C G71C C79U C80U C97A A121U,-6.28
21,G42U U87C G128U U133A,-3.75
22,C40G C53A C70U C115G U125A,-3.58
23,A41C G113C C124U,-3.22
